Measured values from doi:10.1101/2024.12.23.630039 (2024).
Read-outs that look alike come from different tables or passages of the source.

Tests used:
[1] = molecular target: T1, HLA-B*07:02 heavy chain with β2-microglobulin (MHC-I monomer, peptide groove as the binding site) (human | )
[2] = molecular target: T1, HLA-B*07:02 heavy chain with …; experiment: predicted/cited value [23]

Binder | Kd [1] | Kd [2]
RPELVRPAL [high-affinity peptide for HLA-B*07:02 (Table 1)] | 4.38 nM | 
RKELVRPAL [temperature-sensitive template peptide for HLA-B*07:02 (RKELVRPAL)] |  | 4120 nM
